From doi:10.1101/481754, “Tumor Protein D54 is a promiscuous Rab effector” (bioRxiv, 2018) come the findings set out here.

The target in this assay is T1, MBP-TPD54-His (human, UniProt O43399 1-206).
T1 construct: human Tumor protein D54 (TPD54/TPD52L2) inserted in the pMalPre-His vector; also called recombinant MBP-TPD54-His; source: E. coli BL21, purified (HisTrap); not shown: MBP, N-terminal, kept; His, C-terminal, kept
Kind of assay: pull-down; 3 µM GST, GST-Rab1a or GST-Rab6a pre-loaded with 300 µM GppNHp, incubated with 3 µM MBP-TPD54-His 90 min at 20 °C in 25 mM HEPES, 150 mM KCl, 5 mM MgCl2 pH 7.4; glutathione-sepharose beads; Coomassie gel. The note with it: both partners purified.

T1 sequence (O43399 whole entry): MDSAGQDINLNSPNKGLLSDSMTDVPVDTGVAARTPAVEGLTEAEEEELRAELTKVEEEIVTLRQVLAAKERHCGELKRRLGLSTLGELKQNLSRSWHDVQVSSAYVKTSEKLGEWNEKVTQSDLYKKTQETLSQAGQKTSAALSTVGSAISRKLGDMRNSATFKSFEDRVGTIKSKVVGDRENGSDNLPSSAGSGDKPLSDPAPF

B1: GST-Rab1a (natural protein)
chain: not shown
notes: human Rab1a, cut from GFP-Rab1a and inserted into pGEX-6P1; pre-loaded with GDP or GppNHp; source: E. coli BL21, purified (GSTrap); not shown: GST, N-terminal, kept
As to B1, the binding result is recorded as “binds”.
